Data reported in the nanobody polyreactivity screen of Harvey et al. (2022).

assay: yeast display, Sf9 membrane polyspecificity reagent, FACS + sequencing; frameworks hold sequencing errors
Summary of the method: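 A synthetic nanobody library was expressed on Saccharomyces cerevisiae BJ5465 by galactose induction for 36–48 hours. The library was stained for 1 hour at 4 °C with 10% biotinylated, detergent-solubilized Sf9 membrane reagent and enriched with streptavidin microbeads before FACS. Low and high (top ~1%) gates were set on anti-HA fluorescence for expression and streptavidin fluorescence for reagent binding, and each polyreactivity label reflects the gate of origin.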

| Sequence | polyreactivity (PSR sort gate) |
| --- | --- |
| QVQLVESGGGLVQAGGSLRLSCAASGYTFVLNAMGWYRQAPGKEREFVAAITWSGGSTYYADSVKGRFTISRDNAKNTVYLQMNSLNPEDTAVYYCAATAHYFGEYDYWGQGTQVTVSS | low polyreactivity |
| QVQLVESGGGLVQAGGSLRLSCAASGFTFWRYTMGWYRQAPGKERELVAAISGGTTTYYADSVKGRFTISRDNAKNTVYLQMNSLKPEDTAVYYCAAYSQRARTYDYWGHGTQVTVSS | high polyreactivity |
| QVQLVESGGGLVQAGGSLRISCAASGRIFTTYAMGWYRQAPGKEREFVADITLSGSSTYYADSVKGRFTISRDNAKNTVYLQMNSLKPEDTAVYYCAARTGRYYRRYDYWGQGTQETVSS | high polyreactivity |
| QVQLGESGGGLVQAGGSLRLSCAASGYIFRIYAMGGYRQAPGKERELVAAISRSGGSTSYADSVKGRFTISRDTAKNTVYLQMNSLKPEDTAVYYCATEIRPSRIAQYDYWGQGTQVTVSS | high polyreactivity |
| QVQLVESGGGLVQAGGSLRLSCAASGSISYFNDMGWYRQAPGKERELVAAIRDSGGITYADSVKGRFTISRDNAKYTVYLQMNSLKPEDTAVYYCATYGNEIYDYWGQGTQVTVSS | low polyreactivity |
| QVQLVESGRGLVQAGGSLRLSCAASGIIFPFYAMGCYRQAPGKERELVAAITSGDDTYYADSVKGRFTISRDNAKNTVYLQMNSLKPEDTAVYYCNKRLYIAGYWPQLYYIMDYWGQGTQVTVSS | low polyreactivity |
| QVQLVESGGGLVQAGGSLRLSCAASGSIFYYYAMGWDRQAPGKERELVAGITGSGGRTYYADSVKGRFTISRDNAKNTVYLQMNSLKPEDTAVYYCAATRRDSTGSLYYYWGQGTQVTVSS | high polyreactivity |
| QVQLVESGGGLVQAGGSLRLSCAASGRIFGRNTMGWYRQAPGKERELVAAITGTGTTYADSVKGRFTISRDNAKNTVYLQMNSLKPEDTAVYYCAARRSVYTWVSRYNYWGQGTQVTVSS | high polyreactivity |
| QVQLVESGGGLVQAGGSLRLSCAASGSTFYVYAIGWYRHAPGKERELVADITYSDGGTFYADSVKGRFTISRDNAKTTVYLQMNSLKPEDTAGYYCATSYLWNYRGDIFDYWGQGTQVTVSS | high polyreactivity |
| QVQLVESGGGLVQAGGSLRLSCAASGSTIRYYAMGWYRQAPGKERELVAAITKSGGSTYYADSVKGRFTISRDNAKKTVYLQMNSLKPEDTAVYYCAAVRRWYYPALSEHDYWGQGTQVTVSS | low polyreactivity |
| QVHLVESGGGLVQAGGSLRLSCAASGRTFKYNTMGWYRQAPGKERELVAVISRSGGRTYYADSVKGRFTISRDNAKNTVYFQMNSLKPEDTAVYYCAKGIPYSDPQSAYDDYWGQGTQVTVSS | high polyreactivity |
| QVQLVESRGGLVQAGGSLRLSCAASVSTFSDYSIGWYRQATGKERELVAGITGGGGTYYADSVKGRFTISRDNAKNTVYLQMNSLKPEDTAVYYCAAGRRHGFGYWGQGTQVTVSS | low polyreactivity |
| QVQLVESGGGLVQAGGSLRLSCAASGSIFRPYAMGWYRQAPGKERELVAAISSSSGRTYYADSVKGRFTISRDNAKNTVYLQMNSLKPEDTAVYYCAADRYSFRGDYYWGQGTQVTVSS | low polyreactivity |
| QVQLVESGGGLVQAGGSLRLSCAASGFIFAEYAMGWYRQAPGKERELVVAIDVGGGSTYYADSVKGRFTISRDNAKNTVYLQMNSLKPEDTAVYYCAATQYGYWVPYQGFDYWGQGTQVTVSS | low polyreactivity |
| QVQLVESGGGLVQAGGSLRLSCAASGSIFYYNAMGWYRQAPGKERELVATIRTSGGSTYYADSVKGRFTISRDNAKNTVYLQMNSLKPEDTAVYYCAARDLRKLYSRYPYYYWGQGTQVTVSS | high polyreactivity |
| QVQLVESGGGLVQAGGSLRLSCAASGFIFEWNGMGWYRQAPGKERELVAAITWSGGSTYYADSVKGRFTISRDNAKNTVYLQMNSLKPEDTAVYYCNAYWKDDFEDGPGRRGMDYWGQGTQVTVSS | low polyreactivity |
| QVQLVESGGGLVQAGGSLRLSCAASGFTFIRYSMGWYRQAPGKERELVATISRSGGRTYYADSVKGRFTISRDNAKNTVYLQMNSLKPEDTAVYYCNAEAIVLNGGGYWGQGTQVTVSS | high polyreactivity |
| QVQLVESGGGLVQAGGSLRLSCAASGSTYISYAMGWYRQAPGKERELVAAITVSGGRTYYADSVKGRFTISRDNAKNTVYLQMNSLKPEDTAVYYCARGYARSRRWRFDYWGQGTQVTVSS | high polyreactivity |
| QVQLVESGGGLVQAGGSLRLSCAASGNTLYQYAMGWYRQAPGKERELVASITWSGSSTYYADSVKGRFTISRDNAKNTDDLQMNSLKPEDPAVYYCAAVVYYTFDYCGQGTQVTVSS | low polyreactivity |
| QVQLVESGGGLVQAGGSLRLSCAASGITYGYYAMGWYRQAPGKERELVATITDGGGTKYADSVKGRFTISRDNAKNTVYLQMNSLKPEDTAVYYCAAGLRHVYATEYDYWGQGTQVTVSS | low polyreactivity |
| QVQLVESGGGLVQAGGSLRLSCAASGSTFYQYAMGWYRQAPGKERELVAAISKSGGSTYYADSVKGRFTISRDYSKNTVYLQMNSLKPDDTSVYYCATRWIKGRKMDYWGQGTQVTVSS | high polyreactivity |

| Sequence | polyreactivity (PSR sort gate) |
| --- | --- |
| QVQLVESGGGLVQAGGSLRLSCAASGRIFNRYARGWYRQAPGKERELVAAITYNGGSTYYADSVKGRFTISRDNAKNTVYLQMNSLKPEDTAVYYCNAVEVLDEGCGFWYYYWGQGTQVTVSS | high polyreactivity |
| QFQLVESGGGLVQAGGSLRLSCAASGLILQNYVMGWYRQAPGKERELVAAITRSGGGTYYADSVKGRFTISRDNAKNTVYLQMNSLKPEDTAVYYCAAQRQYGKFDYWGQGTQVTVSS | high polyreactivity |
| QVQLVDSGGGLDQAGGSLPLSCAASGSTFVAYAMGWYRQAPGKERELVADNSTSDGSTRYADSVKGRFTISRDNAKNTVYLQMNSLKPEDTAVYYCAAGSEYYSYGGVRFSFYYWGQGTQVTVSS | low polyreactivity |
| HDQLVESGGGLVQAGGSLRLTCAASGFIFGAYTMGWYRQAPGKERELVAAISWSGDSTYYADSVKGRFTISRDNAKNTVYLQMNSLKPEDTAVYYCAAVWYWSGFDYWGQGTQVTVSS | high polyreactivity |
| QVQILESGGGLVQAGGSLGLSCAASGSTFPPYAMGWYRQAPGKERELVATITRGGSTYYADSVKGRFTFSRDNAKNTVYVQMNSLKPADTAVYDCNAKVNRSRRSNLYDYWGQGTQVTVSS | high polyreactivity |
| QVQLVESGGGLVQAGGSLRLSCAASGFTFPDYAMGWYRQAPGKERELVAAISSDGSTYYADSVKGPFTISRDNAKNTVYLQMNSLKPEDTAVYYCAAYVVWLYGDDYWGQGTQVTVSS | low polyreactivity |
| QFQLVESGGGLVQAGGSLRLSCAASGSTFWVYAMGWYRQAPGKERDLVAAITFRTTSTYYADSVKGRFTISRDTAKNSVSLQLKSLIPDDNAVYFCAATEYYATEYDYWGQCTQVTVSS | low polyreactivity |
| QVQLVESGGGLVQAGGSLRLSCAASGRTFTYNTMGWYRQAPGKERELVAAISSRGGRTYYADSVKGRFTISRDNAKNTVYLQMNSLKPEDTAVYYCNADYRYPQYYHRTWIRYDYWGQGTQVTVSS | high polyreactivity |
| QVQLVESGGGLVQAGGSLRLSCAASGFTFLYNAMGWYRQAPVKERELVASINSGGSTNYADSVKGRFTISRDNAKNTVYLQMNSLKPEDTAVYYCNAKRHVRKGDYWGLGTQVTVSS | low polyreactivity |
| QVQLVESGGGLVQAGGSLLLSCAASGFIFDYNAMGGYRPAPGKETELVAAISRSGGSTYADSVKGRFTFSRDNAMNTVYLQMNSLKPEDTAVYYCAADILSRSRSRRVDYWGQGTQVTVSS | low polyreactivity |
| QVQRVESEGGLVQAGGSLRLSCAASGRTFENYAMGWYRQAPGKERELVATINGRSGNTYYADSVKGRFTISRDNAKNTVYLQLNSLKPDDTAVYYCNAYYEGDYTVGYDYWGQGTQVTVSS | high polyreactivity |
| QVQLVESGGGLVQAGGSLRLSCAASGSTIYDNAMGWSRQAPGKERELVAAITWSVGRTYYADSVKGRFTISRDNAKNTVYLQMNSLKPEDTAVYYCAARYQYYSTYGVTLDYWGQGTQVTVSS | low polyreactivity |
| QVQLVESGGGLVQAGGSLRLSCAASGSTSTDYAMGWYRQAPGKERELVAAISYGGGSTYYADSVKGRFTISRDNAKNTVYLQMNSLKPEDTAVYYCAAVARFPKYRYYSWGQGTQVTVSS | high polyreactivity |
| QVQLVESGGVLVEAGGSLRLSCASSGRIFTYYSMGWYRQAPGKERELVAAISRSGRTYYADSVKGRFTISRDNAKNTVYLQMNSLKPEDSAVYFCAAEYYYSWFEYWGQGTQVTVSS | high polyreactivity |
| QVQLVESGGGLVQAGGSLRLSCAASGRIFYKYALGGYRQAPGKERELVAAISYSGGSTYYADSVKGRFTISRDNAKNTVYLQMKSLKPEDNAVYYCNAKPPFGVRSWGDYWGQGTQVTVSS | low polyreactivity |
| QVQLVESGGGLVQAGGSLRLSCAASGSIFSYNAMGGYRPAPGKARELVAAITLSDGGTYYADSVKGRFTISRDNAKNTVYLQMNSLKPEDTAVYYCATTYWLWITYSAYYYWGQGSQVTVSS | low polyreactivity |
| QVQLVESGGGLVQAGGSLRLSCAASGFTFGVYAMGWYRQAPGKERELVAAITRSGSSTYYADSVKGRFTISRDNAKNTVYLQMNSLKPEDTAVYYCNKYKYVSAVQWKVAGDYWGQGTQVTVSS | low polyreactivity |
| QVQLVESGGGLVQAGGSLRLSCAASGSTFKYNAMGWYRQAPGKERELVATISGTGGSTYYADSVKGRFTISRDNAKNTVYLQMNSLKPEDTAVYYCAARWGRSQLRYYYWGQGTQVTVSS | high polyreactivity |
| QVQLVESGGGLVQAGGSLRLSCAASGSIFLHNAMGWYRQAPGKERVLVAVITSRGGSTYYADSVKGRFTISRDNAKNPVYLQMNSLKPEDTAVYYCAAPAYHKRTSRGDYWGQGTQVTVSS | low polyreactivity |
| QVQLVESGGGLVQAGGSLRLSCAASGSTFVYYDMGWYRQAPGKERELVAAISRGGGSTYYADSVKGRFTISRDNAKNTVYLQMNSLKPEDTAVYYCAAVAGYRYYWGQGTQVTVSS | high polyreactivity |
